Laboratory results: patent US20180325997A1

Target: hTERT (human telomerase reverse transcriptase) (human) (UniProt O14746)
Assay: cell-based or functional assay

Chain of hTERT (human telomerase reverse transcriptase) (human) (O14746 whole entry): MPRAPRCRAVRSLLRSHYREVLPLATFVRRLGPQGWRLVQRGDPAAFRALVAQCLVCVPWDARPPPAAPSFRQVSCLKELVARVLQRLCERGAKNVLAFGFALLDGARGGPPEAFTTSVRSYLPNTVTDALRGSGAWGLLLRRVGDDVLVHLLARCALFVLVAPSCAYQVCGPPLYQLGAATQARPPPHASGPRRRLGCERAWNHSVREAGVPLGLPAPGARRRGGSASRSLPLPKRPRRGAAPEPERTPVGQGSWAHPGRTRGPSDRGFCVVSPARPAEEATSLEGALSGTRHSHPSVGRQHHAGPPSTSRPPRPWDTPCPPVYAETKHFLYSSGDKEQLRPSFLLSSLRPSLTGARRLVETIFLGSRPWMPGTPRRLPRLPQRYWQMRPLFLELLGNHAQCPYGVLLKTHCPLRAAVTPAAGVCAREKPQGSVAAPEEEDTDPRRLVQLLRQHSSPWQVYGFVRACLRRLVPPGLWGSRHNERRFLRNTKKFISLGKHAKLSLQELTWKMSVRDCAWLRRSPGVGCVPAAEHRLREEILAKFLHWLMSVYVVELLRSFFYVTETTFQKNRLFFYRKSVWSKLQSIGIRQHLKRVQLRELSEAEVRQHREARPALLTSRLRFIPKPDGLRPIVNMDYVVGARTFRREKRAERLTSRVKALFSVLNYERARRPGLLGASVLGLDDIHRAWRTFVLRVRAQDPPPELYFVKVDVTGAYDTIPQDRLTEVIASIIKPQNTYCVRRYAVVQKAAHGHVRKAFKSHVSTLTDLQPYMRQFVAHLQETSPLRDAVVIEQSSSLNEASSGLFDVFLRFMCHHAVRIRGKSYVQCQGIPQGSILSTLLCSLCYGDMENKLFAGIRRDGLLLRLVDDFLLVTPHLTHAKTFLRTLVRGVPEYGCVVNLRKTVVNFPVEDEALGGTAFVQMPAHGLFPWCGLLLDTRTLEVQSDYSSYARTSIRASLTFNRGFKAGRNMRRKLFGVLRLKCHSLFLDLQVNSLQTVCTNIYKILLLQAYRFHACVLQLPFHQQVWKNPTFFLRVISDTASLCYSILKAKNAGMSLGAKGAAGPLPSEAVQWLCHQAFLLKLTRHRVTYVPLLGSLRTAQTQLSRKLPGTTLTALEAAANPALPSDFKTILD

Substance: LRP102-295::FLAG fragment (from UniProt P14206 102-295) (receptor)
- relative telomerase activity (TRAPEZE kit, real time PCR) in transfected MRC 5 cells against non-transfected cells: 83.4 % elevation
